The target of test [1] is Notch on primary rat oligodendrocytes and oligodendrocyte precursor cells (rat, UniProt Q07008 19-2531). As to the kind of experiment: cell-based or functional assay.
Test [2] deals with T1, F3 on F3-transfected CHO cells (UniProt P12960 21-1001).
T1 construct: whole, on cells; also called F3-CHO; F3-expressing CHO cells
T1 sequence (looked up): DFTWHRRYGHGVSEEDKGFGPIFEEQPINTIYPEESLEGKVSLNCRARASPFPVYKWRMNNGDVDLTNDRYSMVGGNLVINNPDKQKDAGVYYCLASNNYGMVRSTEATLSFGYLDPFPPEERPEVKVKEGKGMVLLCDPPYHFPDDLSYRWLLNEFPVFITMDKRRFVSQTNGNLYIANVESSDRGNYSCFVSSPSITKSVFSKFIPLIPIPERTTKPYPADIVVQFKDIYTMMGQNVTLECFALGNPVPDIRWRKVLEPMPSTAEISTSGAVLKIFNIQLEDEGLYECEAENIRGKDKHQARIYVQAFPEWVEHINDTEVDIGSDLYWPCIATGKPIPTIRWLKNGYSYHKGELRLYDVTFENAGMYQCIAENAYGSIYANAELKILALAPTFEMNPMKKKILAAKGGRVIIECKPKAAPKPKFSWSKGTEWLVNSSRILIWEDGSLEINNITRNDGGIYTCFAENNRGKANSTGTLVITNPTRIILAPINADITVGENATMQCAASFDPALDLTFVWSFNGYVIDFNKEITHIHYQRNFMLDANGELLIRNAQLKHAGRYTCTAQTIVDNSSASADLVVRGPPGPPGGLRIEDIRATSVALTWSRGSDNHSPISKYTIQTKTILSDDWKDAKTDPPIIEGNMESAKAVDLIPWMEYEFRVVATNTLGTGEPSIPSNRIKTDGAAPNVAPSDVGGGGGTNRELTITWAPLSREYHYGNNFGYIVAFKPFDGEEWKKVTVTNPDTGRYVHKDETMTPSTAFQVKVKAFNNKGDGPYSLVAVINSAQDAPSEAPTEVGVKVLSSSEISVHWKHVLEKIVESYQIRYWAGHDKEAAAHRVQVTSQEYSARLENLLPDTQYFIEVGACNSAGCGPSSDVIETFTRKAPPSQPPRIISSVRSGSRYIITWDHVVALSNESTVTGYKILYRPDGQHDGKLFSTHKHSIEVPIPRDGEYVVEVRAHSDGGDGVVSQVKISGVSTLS
As to the kind of experiment: cell adhesion assay, F3-CHO cells on coated substrate.

Test [3] addresses myc-tagged full-length mouse Notch1 on transfected OLN cells (mouse, UniProt Q01705 19-2531). The test is described as follows: cell-based or functional assay.
Test [4] deals with T2, Notch2 on OLN-93 cells (rat, UniProt Q9QW30 26-2471).
T2 construct: whole, on cells; also called OLN cells
T2 sequence (Q9QW30 26-2471): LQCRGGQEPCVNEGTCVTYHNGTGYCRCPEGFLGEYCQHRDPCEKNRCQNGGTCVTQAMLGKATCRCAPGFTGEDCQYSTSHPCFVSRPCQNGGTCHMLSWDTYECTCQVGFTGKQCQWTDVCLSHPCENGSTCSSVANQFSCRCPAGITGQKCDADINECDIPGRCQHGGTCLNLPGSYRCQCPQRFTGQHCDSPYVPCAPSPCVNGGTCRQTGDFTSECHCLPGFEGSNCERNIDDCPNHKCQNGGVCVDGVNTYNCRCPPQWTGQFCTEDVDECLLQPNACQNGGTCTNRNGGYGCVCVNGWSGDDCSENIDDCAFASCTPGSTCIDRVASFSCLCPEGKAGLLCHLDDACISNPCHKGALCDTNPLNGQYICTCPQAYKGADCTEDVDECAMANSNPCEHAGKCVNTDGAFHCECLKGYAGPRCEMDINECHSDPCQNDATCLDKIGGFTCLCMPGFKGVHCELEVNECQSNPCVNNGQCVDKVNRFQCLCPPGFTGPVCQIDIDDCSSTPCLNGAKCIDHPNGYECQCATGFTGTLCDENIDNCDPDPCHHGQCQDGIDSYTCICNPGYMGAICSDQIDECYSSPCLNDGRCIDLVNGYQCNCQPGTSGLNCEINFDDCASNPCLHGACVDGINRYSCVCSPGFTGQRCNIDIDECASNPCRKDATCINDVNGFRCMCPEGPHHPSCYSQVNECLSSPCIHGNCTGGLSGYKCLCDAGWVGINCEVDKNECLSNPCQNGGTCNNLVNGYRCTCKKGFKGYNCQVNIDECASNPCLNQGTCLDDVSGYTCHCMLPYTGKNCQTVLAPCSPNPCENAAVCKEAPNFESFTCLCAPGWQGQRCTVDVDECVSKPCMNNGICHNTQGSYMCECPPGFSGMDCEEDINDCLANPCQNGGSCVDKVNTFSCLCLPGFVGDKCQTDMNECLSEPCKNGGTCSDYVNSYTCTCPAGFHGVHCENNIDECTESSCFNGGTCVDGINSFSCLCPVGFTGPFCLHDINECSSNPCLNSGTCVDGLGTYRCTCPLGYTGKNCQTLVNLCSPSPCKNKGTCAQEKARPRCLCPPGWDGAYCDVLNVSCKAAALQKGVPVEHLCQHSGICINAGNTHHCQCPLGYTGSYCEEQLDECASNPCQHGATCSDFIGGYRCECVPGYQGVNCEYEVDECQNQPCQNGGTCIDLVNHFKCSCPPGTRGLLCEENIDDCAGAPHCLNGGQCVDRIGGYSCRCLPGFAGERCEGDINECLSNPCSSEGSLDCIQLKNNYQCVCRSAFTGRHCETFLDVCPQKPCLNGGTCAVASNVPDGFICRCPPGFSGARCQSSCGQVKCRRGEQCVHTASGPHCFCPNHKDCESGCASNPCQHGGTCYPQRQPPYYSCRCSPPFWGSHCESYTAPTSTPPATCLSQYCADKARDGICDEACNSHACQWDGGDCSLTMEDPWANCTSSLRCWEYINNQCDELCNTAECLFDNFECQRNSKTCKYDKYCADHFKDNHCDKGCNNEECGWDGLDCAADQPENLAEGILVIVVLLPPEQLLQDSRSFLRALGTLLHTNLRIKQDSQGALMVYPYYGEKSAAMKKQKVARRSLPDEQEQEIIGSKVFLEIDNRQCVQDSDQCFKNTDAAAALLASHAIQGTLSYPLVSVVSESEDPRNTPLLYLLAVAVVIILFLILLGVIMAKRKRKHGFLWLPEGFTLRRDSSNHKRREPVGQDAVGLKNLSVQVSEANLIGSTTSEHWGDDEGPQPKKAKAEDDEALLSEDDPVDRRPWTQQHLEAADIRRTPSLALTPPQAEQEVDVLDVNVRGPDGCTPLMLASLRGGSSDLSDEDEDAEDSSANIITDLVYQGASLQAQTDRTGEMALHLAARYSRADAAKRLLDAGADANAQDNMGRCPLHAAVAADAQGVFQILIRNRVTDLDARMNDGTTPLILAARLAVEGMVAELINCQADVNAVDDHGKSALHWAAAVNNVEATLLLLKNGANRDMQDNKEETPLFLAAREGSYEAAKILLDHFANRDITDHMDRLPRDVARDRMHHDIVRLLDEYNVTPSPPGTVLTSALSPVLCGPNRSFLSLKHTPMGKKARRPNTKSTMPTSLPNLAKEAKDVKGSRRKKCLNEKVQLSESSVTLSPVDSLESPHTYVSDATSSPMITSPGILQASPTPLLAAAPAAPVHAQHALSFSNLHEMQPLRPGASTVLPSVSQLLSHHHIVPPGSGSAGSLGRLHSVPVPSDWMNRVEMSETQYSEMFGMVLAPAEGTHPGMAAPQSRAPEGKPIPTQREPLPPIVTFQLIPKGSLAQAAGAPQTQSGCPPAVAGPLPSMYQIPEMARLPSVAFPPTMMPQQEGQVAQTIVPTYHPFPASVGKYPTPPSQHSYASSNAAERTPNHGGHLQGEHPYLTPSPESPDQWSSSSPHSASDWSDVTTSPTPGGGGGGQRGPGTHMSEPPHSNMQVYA
As to the kind of experiment: OLN-93 cell adhesion to F3-Fc substrate with antibody blockade. The method, then: This was carried out as previously described (Xiao et al, 1996). Briefly, 35 mm tissue culture petri dishes (Becton Dickinson) were coated with methanol solubilized nitrocellulose (Lagenaur and Lemon, 1987) and air-dried under a sterile hood.

Chain of Notch on primary rat oligodendrocytes and oligodendrocyte precursor cells (Q07008 19-2531): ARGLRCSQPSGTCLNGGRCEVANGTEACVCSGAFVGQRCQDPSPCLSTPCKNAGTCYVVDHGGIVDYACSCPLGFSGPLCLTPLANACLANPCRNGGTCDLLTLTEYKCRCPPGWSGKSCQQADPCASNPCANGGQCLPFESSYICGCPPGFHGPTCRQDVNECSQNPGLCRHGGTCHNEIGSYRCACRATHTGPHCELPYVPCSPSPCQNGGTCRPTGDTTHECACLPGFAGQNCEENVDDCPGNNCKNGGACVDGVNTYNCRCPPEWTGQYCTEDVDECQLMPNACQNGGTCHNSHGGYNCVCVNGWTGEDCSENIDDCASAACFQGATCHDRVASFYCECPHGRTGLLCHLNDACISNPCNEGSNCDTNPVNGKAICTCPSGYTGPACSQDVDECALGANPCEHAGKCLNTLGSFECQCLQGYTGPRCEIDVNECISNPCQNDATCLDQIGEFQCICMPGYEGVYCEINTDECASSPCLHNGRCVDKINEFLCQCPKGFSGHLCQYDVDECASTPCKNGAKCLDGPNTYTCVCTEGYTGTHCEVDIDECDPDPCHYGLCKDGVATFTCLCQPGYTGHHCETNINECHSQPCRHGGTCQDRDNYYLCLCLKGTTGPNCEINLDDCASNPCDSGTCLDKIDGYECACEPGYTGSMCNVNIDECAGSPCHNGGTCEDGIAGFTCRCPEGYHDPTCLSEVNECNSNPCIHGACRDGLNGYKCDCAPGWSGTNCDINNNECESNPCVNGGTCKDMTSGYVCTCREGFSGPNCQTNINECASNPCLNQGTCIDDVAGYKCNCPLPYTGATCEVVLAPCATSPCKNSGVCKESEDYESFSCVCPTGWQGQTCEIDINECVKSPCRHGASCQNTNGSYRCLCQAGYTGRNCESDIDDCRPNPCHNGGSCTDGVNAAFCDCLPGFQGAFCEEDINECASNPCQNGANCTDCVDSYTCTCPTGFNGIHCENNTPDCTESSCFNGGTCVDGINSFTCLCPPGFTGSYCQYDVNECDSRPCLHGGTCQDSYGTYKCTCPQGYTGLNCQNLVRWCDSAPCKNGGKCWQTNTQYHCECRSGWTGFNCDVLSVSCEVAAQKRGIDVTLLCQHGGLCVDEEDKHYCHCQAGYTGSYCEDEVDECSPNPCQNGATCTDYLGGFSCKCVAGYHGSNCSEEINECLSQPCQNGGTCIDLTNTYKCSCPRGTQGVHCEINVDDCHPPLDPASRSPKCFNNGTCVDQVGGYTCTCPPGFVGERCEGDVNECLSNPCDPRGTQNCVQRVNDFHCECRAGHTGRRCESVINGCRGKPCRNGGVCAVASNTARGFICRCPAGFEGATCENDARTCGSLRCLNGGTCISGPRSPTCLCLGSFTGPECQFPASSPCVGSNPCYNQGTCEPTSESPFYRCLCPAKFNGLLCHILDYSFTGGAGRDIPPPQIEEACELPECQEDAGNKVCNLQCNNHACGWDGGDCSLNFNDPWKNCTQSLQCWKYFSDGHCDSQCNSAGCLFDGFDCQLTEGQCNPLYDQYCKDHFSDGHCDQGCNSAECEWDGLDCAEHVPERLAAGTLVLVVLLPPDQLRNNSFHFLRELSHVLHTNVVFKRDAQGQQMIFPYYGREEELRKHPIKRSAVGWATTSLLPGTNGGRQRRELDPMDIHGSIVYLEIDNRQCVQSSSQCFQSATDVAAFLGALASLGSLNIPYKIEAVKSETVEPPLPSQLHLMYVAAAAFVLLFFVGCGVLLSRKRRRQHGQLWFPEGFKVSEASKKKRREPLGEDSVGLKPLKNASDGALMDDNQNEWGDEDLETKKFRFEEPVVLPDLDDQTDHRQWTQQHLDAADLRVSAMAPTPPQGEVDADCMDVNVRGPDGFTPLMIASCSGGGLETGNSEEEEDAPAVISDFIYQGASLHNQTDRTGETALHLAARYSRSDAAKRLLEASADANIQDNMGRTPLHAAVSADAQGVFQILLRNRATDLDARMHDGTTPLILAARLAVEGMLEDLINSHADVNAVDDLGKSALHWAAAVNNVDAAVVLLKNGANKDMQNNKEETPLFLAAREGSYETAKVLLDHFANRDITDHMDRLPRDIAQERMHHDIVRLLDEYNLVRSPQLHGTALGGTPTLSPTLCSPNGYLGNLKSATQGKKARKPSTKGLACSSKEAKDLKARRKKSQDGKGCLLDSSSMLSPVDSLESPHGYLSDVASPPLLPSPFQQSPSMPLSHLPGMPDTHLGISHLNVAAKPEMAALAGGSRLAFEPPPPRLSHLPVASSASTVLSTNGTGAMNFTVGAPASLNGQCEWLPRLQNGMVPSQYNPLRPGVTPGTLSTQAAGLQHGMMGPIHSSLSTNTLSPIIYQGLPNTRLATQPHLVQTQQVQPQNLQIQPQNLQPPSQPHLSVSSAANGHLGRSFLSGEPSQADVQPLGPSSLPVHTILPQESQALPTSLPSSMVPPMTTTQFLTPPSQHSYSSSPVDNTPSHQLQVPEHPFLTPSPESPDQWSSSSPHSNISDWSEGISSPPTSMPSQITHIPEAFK

B1: NB-3-His (ligand, rat)
chain: ESRFTRPIFIQEPQDVIFPLDLSRSEIILSCTASGYPSPHYRWKQNGTDIDFSMTYHYRLDGGSLAISSPRTDQDIGIYQCLATNPVGTILSRKAKLQFAYIEDFETKSRSTVSVREGQGVVLLCGPPPHFGELSYDWTFNDNPLYVQEDKRRFVSQNTGNLYIAKVEPSDVGNYTCFVTNKEAHRSVQGPPTPLVQRTDGVMGEYEPKIEVRFPETIQAAKDSSVKLECFALGNPVPDISWRRLDGSPMPGKVKYSNSQATLEIPKFQQEDEGFYECVAGNLRGRNLAKGQLIFYAPPEWEQKIQNTYLSIYDSLFWECKASGNPNPSYTWLKNGERLNTEERIQTENGTLIITMLNVSDSGIYQCAAENKYQTIYANAELRVLASAPDFSKNPIKKISVVQVGGDISIECKPNAFPKASISWKRGTENLKQSKRVFFLEDGSLKICNVTRSDAGSYTCVATNQFGNGKSSGSLIVKERTVITVPPSKMDVTVGESIVLPCQVSHDPTMEVLFVWYFNGDVIDLKKGVAHFERIGGESVGDLMIRNIQLGHSGKYLCTVQTTLERLSAVADIIVRGPPGPPEDVKVEHISSTTSQLSWRPGPDNNSPIQIFTIQTRTPFSVGWQAVATVPEILNGQTYNATVIGLSPWVEYEFRVVAGNNIGIGEPSKPSELLRTKASIPNVAPVNINGGGGSRSELVITWEPIPEELQNGEGFGYIIMFRPVGSTTWMKEKVALVESSKFIYRNESIMPLSPFEVKVGVYNNEGEGSLSTVSIVYSGEDEPRLAPRGTSVQSFSASDMEVSWNAIAWNRNTGRVLGYEVLYWTDNSKESMIGKIRVSGNVTTKNITGLRANTIYFASVRAYNTAGTGPSSPPVNVTTKKSPPSQPPANIAWKLSNSKLCLNWEHVKTMENESEVLGYKILYRQNRQSKTHVLETNNTSAELLVPFEEDYLIEIRTVSDGGDGSSSEEIRIPKMSSLSSHHHHHH
Regarding B1, the “MAG mRNA, real-time RT-PCR, primary oligodendrocytes on protein substrate against BSA” value in test [1] was roughly 8 fold.

B2: GST-Nogo-66 (other, UniProt Q9NQC3 1055-1120, looked up)
chain: RIYKGVIQAIQKSDEGHPFRAYLESEVAISEELVQKYSNSALGHVNCTIKELRRLFLVDDLVDSLK
notes: also called Nogo-66-GST; recombinant GST-Nogo-66 protein; not shown: glutathione S-transferase (GST) encoded by vector pGEX-KG
Turning to B2, the binding result in test [2] was “no binding”.

B3: F3-Fc (Fc fusion, mouse, UniProt P12960 21-1001, looked up)
chain: DFTWHRRYGHGVSEEDKGFGPIFEEQPINTIYPEESLEGKVSLNCRARASPFPVYKWRMNNGDVDLTNDRYSMVGGNLVINNPDKQKDAGVYYCLASNNYGMVRSTEATLSFGYLDPFPPEERPEVKVKEGKGMVLLCDPPYHFPDDLSYRWLLNEFPVFITMDKRRFVSQTNGNLYIANVESSDRGNYSCFVSSPSITKSVFSKFIPLIPIPERTTKPYPADIVVQFKDIYTMMGQNVTLECFALGNPVPDIRWRKVLEPMPSTAEISTSGAVLKIFNIQLEDEGLYECEAENIRGKDKHQARIYVQAFPEWVEHINDTEVDIGSDLYWPCIATGKPIPTIRWLKNGYSYHKGELRLYDVTFENAGMYQCIAENAYGSIYANAELKILALAPTFEMNPMKKKILAAKGGRVIIECKPKAAPKPKFSWSKGTEWLVNSSRILIWEDGSLEINNITRNDGGIYTCFAENNRGKANSTGTLVITNPTRIILAPINADITVGENATMQCAASFDPALDLTFVWSFNGYVIDFNKEITHIHYQRNFMLDANGELLIRNAQLKHAGRYTCTAQTIVDNSSASADLVVRGPPGPPGGLRIEDIRATSVALTWSRGSDNHSPISKYTIQTKTILSDDWKDAKTDPPIIEGNMESAKAVDLIPWMEYEFRVVATNTLGTGEPSIPSNRIKTDGAAPNVAPSDVGGGGGTNRELTITWAPLSREYHYGNNFGYIVAFKPFDGEEWKKVTVTNPDTGRYVHKDETMTPSTAFQVKVKAFNNKGDGPYSLVAVINSAQDAPSEAPTEVGVKVLSSSEISVHWKHVLEKIVESYQIRYWAGHDKEAAAHRVQVTSQEYSARLENLLPDTQYFIEVGACNSAGCGPSSDVIETFTRKAPPSQPPRIISSVRSGSRYIITWDHVVALSNESTVTGYKILYRPDGQHDGKLFSTHKHSIEVPIPRDGEYVVEVRAHSDGGDGVVSQVKISGVSTLS
notes: domain: F3 without the GPI-anchor; also called F3 substrate; soluble F3; not shown: human IgG Fc
Turning to B3, the “nuclear NICD staining intensity” value in test [3] was 2 fold. Further, in test [1], the “MAG mRNA, real-time RT-PCR, primary oligodendrocytes on protein substrate against BSA” value is roughly 8 fold and the “MAG transcripts, real-time PCR, primary OLs on F3 substrate against BSA” value was roughly 16 fold. Also, the binding result in test [4] was “binds”.

Source of the values: patent publication US8273855 (JIANGSU NOVAVAC BIO TEC, dated 2012).
